Experimental data taken from US20190359986A1.

Target: TNF-α
Assay: cell-based or functional assay

Row | Substance | EC50, L929 cytotoxicity assay (protection of L929 cells from TNF-α) [ng/mL] | also measured
1 | Recombinant soluble TNFR2 (rsTNFR2) (from UniProt P25119 23-258) (receptor) | 698 | 
2 | mouse TNFR2 Δ7 with His-tag, from clone 1144-4 transfected HeLa cells (receptor) |  | EC50, L929 cytotoxicity assay; extracellular media from 1144-4 transfected HeLa cells: 2.4 ng/mL
3 | Etanercept (Fc fusion) | 1.1 | 
4 | mouse TNFR2 Δ7 without His-tag, from clone 1145-3 transfected HeLa cells (from UniProt P25119 23-474) (receptor) |  | EC50, L929 cytotoxicity assay; extracellular media from 1145-3 transfected HeLa cells: 2.4 ng/mL
